Patent US20240343803A1 (SHANDONG SIMCERE BIOPHARMACEUTICAL, published 2024)

B1: PVRIG-A118-H1 (Fc fusion)
chain: EVQLVESGGGLVQPGGSLRLSCAASETYFDLYVMGWYRQAPGKDRELVATITYTGSIYYVDSVKGRFTISRDNAKNSLYLQMNSLRAEDTAVYYCNADPSGLGRKVYWGQGTMVTVSS
notes: humanized variant of PVRIG-A118; also called A118.VH1; not shown: constant part not restated for the humanized forms; parents are VHH-hinge-CH2-CH3 of human IgG1; detected by anti-human
B2: PVRIG-A118-H2 (Fc fusion)
chain: EVQLVESGGGLVQPGGSLRLSCAASETYFDLYVMGWYRQAPGKDRELVATITYTGSIKYVDSVKGRFTISRDNAKNSLYLQMNSLRAEDTAVYYCNADPSGLGRKVYWGQGTMVTVSS
notes: humanized variant of PVRIG-A118; also called A118.VH2; not shown: constant part not restated for the humanized forms; parents are VHH-hinge-CH2-CH3 of human IgG1; detected by anti-human

Columns and labels:
[1] = biological target: T1, human PVRIG on FlpinCHO-PVRIG cells (human, UniProt Q6DKI7 41-326); assay: FACS, FlpinCHO-PVRIG cells
T1 construct: whole, on cells
T1 sequence (looked up): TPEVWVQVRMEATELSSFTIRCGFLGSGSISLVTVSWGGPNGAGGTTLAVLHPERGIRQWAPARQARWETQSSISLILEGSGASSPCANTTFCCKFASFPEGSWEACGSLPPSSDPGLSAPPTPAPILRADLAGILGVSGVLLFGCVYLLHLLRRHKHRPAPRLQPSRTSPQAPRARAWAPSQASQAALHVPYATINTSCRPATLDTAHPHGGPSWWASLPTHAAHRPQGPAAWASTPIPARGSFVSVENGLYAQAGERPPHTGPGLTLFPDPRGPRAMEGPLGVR

[2] = biological target: T2, human PVRIG-his (AcroBiosystems, Cat NO. PVG-H52H4) (human, UniProt Q6DKI7 41-171, limits assumed); assay: competition ELISA, PVRIG-His coated, competitor human PVRL2-mFc; set-up: AUC: unit not given here
T2 construct: also called human PVRIG protein
T2 sequence (looked up): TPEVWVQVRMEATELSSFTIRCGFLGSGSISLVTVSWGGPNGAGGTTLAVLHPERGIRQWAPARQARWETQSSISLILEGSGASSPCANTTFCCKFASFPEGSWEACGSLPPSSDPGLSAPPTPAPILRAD

[3] = biological target: T2, human PVRIG-his (AcroBiosystems, Cat …); assay: SPR (BIAcore), antibody captured on Protein A chip, human PVRIG-His analyte

Binder | AUC % to COM701-hIgG1 [1] | AUC % to SRF813-hIgG1 [1] | AUC % to parental Ab [1] | % relative activity (AUC) parental antibody/test antibody [2] | % relative activity (IC50) parental antibody/test antibody [2] | AUC [2] | IC50 [2] | Kd [3] | koff [3] | kon [3]
B1 | 127% | 178% | 93.2% | 121% | 157% | 1.31 | 0.355 nM | 0.478 nM | 0.000658 s⁻¹ | 1.38e+06 M⁻¹ s⁻¹
B2 | 125% | 174% | 91.3% | 117% | 156% | 1.35 | 0.357 nM | 0.517 nM | 0.00082 s⁻¹ | 1.59e+06 M⁻¹ s⁻¹
